Experimental data reported in patent US20230312698A1 (NANJING GENSCRIPT BIOTECH, published 2023).
Residue numbers refer to the chain shown, from its start. Read-outs that look alike come from different tables or passages of the source. Values belong to the binder of their own block, whether it stands above or below them.

Columns and labels:
[1] = biological target: T1, human Ang2 protein (R&D Systems, 623-AN-01M/CF; 623-AN/CF) (human, UniProt O15123 19-496); test: indirect ELISA, human Ang2 coated at 0.5 µg/ml
T1 construct: Bought recombinant protein; also called Ang2 proteins; angiopoietin-2
T1 sequence (looked up): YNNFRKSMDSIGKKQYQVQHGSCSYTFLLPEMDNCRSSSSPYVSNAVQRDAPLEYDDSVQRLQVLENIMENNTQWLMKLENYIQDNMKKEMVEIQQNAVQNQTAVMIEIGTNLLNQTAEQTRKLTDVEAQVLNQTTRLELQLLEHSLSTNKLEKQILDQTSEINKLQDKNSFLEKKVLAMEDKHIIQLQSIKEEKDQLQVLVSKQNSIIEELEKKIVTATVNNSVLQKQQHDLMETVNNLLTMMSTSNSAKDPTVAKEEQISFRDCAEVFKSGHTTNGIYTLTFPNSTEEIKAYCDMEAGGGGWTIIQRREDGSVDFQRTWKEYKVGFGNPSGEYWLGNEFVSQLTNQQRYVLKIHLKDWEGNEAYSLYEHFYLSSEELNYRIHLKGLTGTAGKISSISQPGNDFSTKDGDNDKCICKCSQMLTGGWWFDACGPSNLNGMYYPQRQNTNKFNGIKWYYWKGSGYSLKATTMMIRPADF
Description: (§1) The antibodies were tested for their binding activities to Ang2 in an indirect ELISA. Briefly, 100 μl of 0.5 μg/ml human or mouse Ang2 proteins (R&D Systems; 623-AN-01M/CF for human Ang2, 7186-AN-025/CF for mouse Ang2) were pre-coated onto ELISA plates overnight at 4° C. On the next day, the plates were incubated with […] diluted primary antibodies, with initial concentration at 1 μg/ml. The plates were added with HRP-conjugated goat anti-mouse IgG (H+L) and then TMB for chromogenic reaction. The antibody-antigen binding curves were generated with optical density readings at 450 nm. Raw data was plotted using GraphPad Prism v6.02 software with four parameters, and best-fit values program was used to analyze the EC₅₀.

[2] = biological target: T2, membrane-anchored human Ang2 protein expressed on CHO-K1 cells (human, UniProt O15123 19-496); test: FACS
T2 chain: T1 sequence (looked up)

[3] = biological target: T3, membrane-anchored cyno Ang2 protein expressed on CHO-K1 cells (cyno, UniProt A0A2K5VNX6 19-496); test: FACS
T3 chain: T1 sequence (looked up) with E258G, I279V, F284L, I291V, G410A, A468G, D477G

[4] = biological target: T4, mouse Ang2 protein (R&D Systems, 7186-AN-025/CF) (mouse, UniProt O35608 19-496, limits assumed); test: indirect ELISA, mouse Ang2 coated at 0.5 µg/ml
T4 construct: Bought recombinant protein
T4 sequence (looked up): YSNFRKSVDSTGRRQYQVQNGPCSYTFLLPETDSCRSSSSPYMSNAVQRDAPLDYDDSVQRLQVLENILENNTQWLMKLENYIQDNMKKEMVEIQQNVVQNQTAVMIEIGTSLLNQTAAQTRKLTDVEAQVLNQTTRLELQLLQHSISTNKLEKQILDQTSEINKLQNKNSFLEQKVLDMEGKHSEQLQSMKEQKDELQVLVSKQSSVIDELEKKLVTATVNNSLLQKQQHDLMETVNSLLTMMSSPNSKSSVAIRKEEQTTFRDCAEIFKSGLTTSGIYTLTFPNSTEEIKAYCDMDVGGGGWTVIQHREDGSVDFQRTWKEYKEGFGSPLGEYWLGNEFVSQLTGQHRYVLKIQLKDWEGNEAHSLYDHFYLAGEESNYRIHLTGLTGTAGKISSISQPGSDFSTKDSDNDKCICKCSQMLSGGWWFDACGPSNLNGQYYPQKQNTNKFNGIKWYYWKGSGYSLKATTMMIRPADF
Description: as §1

[5] = biological target: T5, human Ang2 protein (R&D Systems, 623-AN-01M/CF; 623-AN/CF) (human, UniProt O15123 19-496); test: ELISA
T5 chain: T1 sequence (looked up)

[6] = biological target: T5, human Ang2 protein (R&D Systems, …); test: ELISA
[7] = biological target: T1, human Ang2 protein (R&D Systems, …); test: indirect ELISA, human Ang2 coated at 0.5 µg/ml, anti-human IgG-HRP
Description: The humanized antibodies were tested for their binding activities to human Ang2 in an indirect ELISA. Briefly, 100 μl of 0.5 μg/ml human Ang2 proteins (R&D Systems; 623-AN-01M/CF) were pre-coated onto ELISA plates overnight at 4° C. On the next day, the plates were incubated with 100 μl 3× serially diluted primary antibodies, with initial concentration at 1 μg/ml. The plates were added with HRP-conjugated goat anti-human IgG antibody (Jackson, cat #109-605-098) and then TMB for chromogenic reaction. The antibody-antigen binding curves were generated with optical density readings at 450 nm. Antibody ABA and IgG1 were used as a positive and negative control respectively. Raw data was plotted using GraphPad Prism v6.02 software with four parameters, and best-fit values program was used to analyze the EC₅₀.

binding result [1]: binds
EC50 [2]: 1.69 nM
EC50 [3]: 2.37 nM
EC50 [5]: 7.17 ng/mL
B2: 4D8F2 (antibody, V domains shown)
VH: DVQLQESGPGLVKPSQSLSLTCTVTGYSITSDYAWNWIRQFPGNKLEWMGYISYSGSTSYNPSLKSRISITRDTSKNQFFLQLNSVTTEDTATYYCARGVRGDMDYWGQGTSVTVSS
VL: SIVMTQTPKFLLVSAGDRVTITCKASQSVSNDVAWYQQKPGQSPKLLIYYASNRYTGVPDRFTGSGYGTDFTFTISTVQAEDLAVYFCQQDYSSPFTFGSGTKLEIK
notes: Hybridoma antibody purified with Protein-A beads
binding result [4]: no binding (tested: initial concentration at 1 µg/ml)

EC50 [6]: 0.718 ng/mL
binding result [7]: binds
B5: 85E10B9-VH3-VL1 (antibody, V domains shown)
VH: QVQLVQSGAEVKKPGASVKVSCKASGYTFTNHYLHWVRQAPGQRLEWMGWIGPTNGDTSYAQKFKDRVTITRDTSASTAYMELSSLRSEDTAVYYCAREGYFTNYFDYWGQGTLVTVSS
VL: DIQMTQSPSSLSASVGDRVTITCKASQNVIKYLAWYQQKPGKVPKLLIYNASSLQTGVPSRFSGSGSGTDFTLTISSLQPEDVATYYCLQYNSWWTFGGGTKVEIK
notes: Humanized antibody expressed in CHO-3E7; also called humanized 85E10B9 lead

binding result [1]: binds
EC50 [2]: 0.203 nM
EC50 [3]: 0.342 nM
EC50 [5]: 6.34 ng/mL
B6: 46H3H3 (antibody, V domains shown)
VH: EVKLVESGGGLVQPGGSRKLSCAASGFTFSDYGMVWVRQAPGKGLEWVAYIGSGRSTIYYADTVKGRFTISRDNPKNTLFLQMSSLRSEDTAMYYCAREDNGYSYAMDYWGQGTSVTVSS
VL: DIQMTQSPASQSASLGESVTITCLASQTIGTWLAWYQQKPGKSPQLLIYAATSLADGVPSRFSGSGSGTKFSFKISSLQAEDFVSYYCQQLYSTPLTFGAGTKLELK
notes: as for B2
binding result [4]: no binding (tested: initial concentration at 1 µg/ml)

The remaining lines, values behind:

B1: 5A7B9 (antibody, V domains shown)
VH: QIQLVQSGPELKKPGETVKISCKASGYTFTNYGVNWVKQAPGKGLKWMGWINSYSGVPTYADDFKGRFAFSLETSASTAYLQINNLKNEDTATYFCARGENNYYGGSYDWGQGTTLTVSS
VL: B2 VL with F96L, S100A, I106L
notes: as for B2
binding result [1]: binds
EC50 [2]: 0.369 nM
EC50 [3]: 0.662 nM
binding result [4]: no binding (tested: initial concentration at 1 µg/ml)
EC50 [5]: 7.47 ng/mL

B3: 85E10B9-VH1-VL6 (antibody, V domains shown)
VH: B5 VH with R44G, I70M, A76I, S85R, E89D
VL: B5 VL with V43A, L46R, D70E, E81D, V83F, G99Q
EC50 [6]: 7.29 ng/mL

B4: 85E10B9-VH3-VL2 (antibody, V domains shown)
VH: B5 VH
VL: B5 VL with M4L, S10F, V43A, D70E, V83F
EC50 [6]: 4.52 ng/mL

B7: 53E8B2-VH3-VL2 (antibody, V domains shown)
VH: EVQLVESGGGLVQPGGSLRLSCAASGFTFSDYAMAWVRQAPGKGLEWVATIIYDGSSTYYRDSVKGRFTISRDNAKNSLYLQMNSLRAEDTAVYYCARHGRVFGFGYFDYWGQGTLVTVSS
VL: DIQMTQSPSSVSASVGDRVTITCQASQDIGDWVAWYQQKPGRAPKLLIYGADRLADGVPSRFSGSGSGTDFTLTISSLQPEDFATYYCLQDYSPPFTFGQGTKLEIK
EC50 [6]: 4.35 ng/mL
